This is an account of results in patent US20260166085A1 (BEAM THERAPEUTICS, published 2026).

As usually defined, the Kd is the concentration at which binding is half-saturated. As a reminder, the koff is the first-order rate constant of dissociation. Read a high koff as a short-lived complex. In general, kon refers to a measure of how fast the partners come together. For orientation: EC50 means the concentration at which the effect is half-maximal. A high value points to lower potency in that assay.

Experiment [1] concerns the target T1, CC89 variant of CD117 (T144A) on M07e cells (human, UniProt P10721 26-976).
T1 construct: also called CC89-M07e
Description: binding to edited M07e cells (Table 8B).

Experiment [2] deals with T2, Wild type CD117 purified protein (human, UniProt P10721 26-520, limits assumed).
T2 construct: Protein used in BLI/kinetics and cryo-EM; also called wt CD117; Wt CD117
The experiment can be described thus: KD, method not stated (Table 8B).

A further experiment addresses T3, Cyno CD117 (cynomolgus, UniProt F6V858 26-520 (rhesus entry)).
T3 construct: also called cynomolgus CD117
Description: KD, method not stated (Table 8B).

In experiment [3] the target is T2, Wild type CD117 purified protein. Description: summary Table 75 (repeats Table 71).
Experiment [4] deals with T4, Wild type CD117 expressed on cells (M07e cells, unedited human CD34+ HSPCs) (human, UniProt P10721 26-976). The experiment can be described thus: cell-based or functional assay.
In experiment [5] the target is T2, Wild type CD117 purified protein. Description: monovalent KD, CD117 titrated (FIGS. 73A-73E).
Experiment [6] addresses T4, Wild type CD117 expressed on cells …. Description: summary Table 75 (repeats Table 73).
For experiment [7] the target is unchanged. Description: flow cytometry on M07e cells, AF647 secondary (FIG. 76A). For orientation: Flow cytometry measures light scatter and fluorescence of single cells or particles in a stream.
Experiment [8] addresses T2, Wild type CD117 purified protein. The experiment can be described thus: binding kinetics grade, FIGS. 55A-55C.
The target of experiment [9] is wild type CD117 extracellular domain (ECD) protein (human, UniProt P10721 26-524). Description: BLI (Octet), antibody on AHC biosensor, CD117 ECD titrated 1:2 from 345 nM. Here is the method: The AHC biosensor data was analyzed using Octet Analysis Studio software.
On the technique in general: Biolayer interferometry detects binding as a change in optical thickness at a sensor tip.

Experiment [10] deals with T5, CC128 variant of CD117 (Y259C + N260D) purified protein (human, UniProt P10721 26-520, limits assumed).
T5 construct: also called CC128-edited CD117 as purified protein
The experiment can be described thus: BLI (Octet), CC128 variant on SA biosensor, antibody titrated 1:2 from 2.5 µM. As for the experimental part: Binding to the CC128 variant of CD117 was determined using streptavidin (SA) biosensors, which were allowed to bind the CC128 variant from a 5 μg/ml solution thereof. The SA biosensors were then titrated with monoclonal antibodies starting at 2.5 μM and using titration increments of 1:2. Data was analyzed using the Octet Analysis Studio Software.

The target in experiment [11] is T4, Wild type CD117 expressed on cells …. The experiment can be described thus: flow cytometry on M07e cells expressing wild type CD117, 1 h (FIG. 87A).
In experiment [12] the target is T2, Wild type CD117 purified protein. Description: binding kinetics, antibody 333.3 to 5.2 nM (FIGS. 58A-58D).
The target of experiment [13] is T4, Wild type CD117 expressed on cells …. The experiment can be described thus: flow cytometry (MFI) on M07e cells (FIG. 59).
The target is the same in experiment [14]. Description: cell-based or functional assay. The source holds these as a separate data set.

T2 sequence (P10721 26-520 limits assumed): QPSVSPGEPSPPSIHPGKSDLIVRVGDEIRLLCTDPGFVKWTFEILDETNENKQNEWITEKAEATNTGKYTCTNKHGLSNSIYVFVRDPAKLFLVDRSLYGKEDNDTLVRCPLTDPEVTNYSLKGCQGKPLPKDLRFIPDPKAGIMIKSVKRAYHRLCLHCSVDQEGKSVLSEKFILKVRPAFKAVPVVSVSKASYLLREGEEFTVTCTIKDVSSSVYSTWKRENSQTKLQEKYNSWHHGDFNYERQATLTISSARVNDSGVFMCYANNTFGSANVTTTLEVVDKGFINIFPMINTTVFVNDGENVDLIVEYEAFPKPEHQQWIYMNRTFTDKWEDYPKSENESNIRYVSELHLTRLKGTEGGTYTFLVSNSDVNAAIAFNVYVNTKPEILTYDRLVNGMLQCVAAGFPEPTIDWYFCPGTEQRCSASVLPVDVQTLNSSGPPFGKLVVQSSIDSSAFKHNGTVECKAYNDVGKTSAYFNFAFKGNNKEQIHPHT
Sequence of wild type CD117 extracellular domain (ECD) protein (P10721 26-524 limits assumed): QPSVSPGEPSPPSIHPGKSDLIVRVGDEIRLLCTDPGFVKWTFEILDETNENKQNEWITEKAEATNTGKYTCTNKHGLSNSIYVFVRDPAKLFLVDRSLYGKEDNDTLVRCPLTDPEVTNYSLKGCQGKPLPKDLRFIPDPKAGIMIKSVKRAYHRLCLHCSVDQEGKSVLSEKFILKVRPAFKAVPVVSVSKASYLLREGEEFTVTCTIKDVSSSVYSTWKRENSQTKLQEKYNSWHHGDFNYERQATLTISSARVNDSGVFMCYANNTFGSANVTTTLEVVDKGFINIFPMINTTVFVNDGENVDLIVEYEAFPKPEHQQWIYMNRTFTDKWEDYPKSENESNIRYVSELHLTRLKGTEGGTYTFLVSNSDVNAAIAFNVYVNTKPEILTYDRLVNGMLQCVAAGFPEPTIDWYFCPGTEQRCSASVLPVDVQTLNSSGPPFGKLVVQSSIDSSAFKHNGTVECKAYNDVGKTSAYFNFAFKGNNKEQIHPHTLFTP
T4 sequence (P10721 26-976 limits assumed): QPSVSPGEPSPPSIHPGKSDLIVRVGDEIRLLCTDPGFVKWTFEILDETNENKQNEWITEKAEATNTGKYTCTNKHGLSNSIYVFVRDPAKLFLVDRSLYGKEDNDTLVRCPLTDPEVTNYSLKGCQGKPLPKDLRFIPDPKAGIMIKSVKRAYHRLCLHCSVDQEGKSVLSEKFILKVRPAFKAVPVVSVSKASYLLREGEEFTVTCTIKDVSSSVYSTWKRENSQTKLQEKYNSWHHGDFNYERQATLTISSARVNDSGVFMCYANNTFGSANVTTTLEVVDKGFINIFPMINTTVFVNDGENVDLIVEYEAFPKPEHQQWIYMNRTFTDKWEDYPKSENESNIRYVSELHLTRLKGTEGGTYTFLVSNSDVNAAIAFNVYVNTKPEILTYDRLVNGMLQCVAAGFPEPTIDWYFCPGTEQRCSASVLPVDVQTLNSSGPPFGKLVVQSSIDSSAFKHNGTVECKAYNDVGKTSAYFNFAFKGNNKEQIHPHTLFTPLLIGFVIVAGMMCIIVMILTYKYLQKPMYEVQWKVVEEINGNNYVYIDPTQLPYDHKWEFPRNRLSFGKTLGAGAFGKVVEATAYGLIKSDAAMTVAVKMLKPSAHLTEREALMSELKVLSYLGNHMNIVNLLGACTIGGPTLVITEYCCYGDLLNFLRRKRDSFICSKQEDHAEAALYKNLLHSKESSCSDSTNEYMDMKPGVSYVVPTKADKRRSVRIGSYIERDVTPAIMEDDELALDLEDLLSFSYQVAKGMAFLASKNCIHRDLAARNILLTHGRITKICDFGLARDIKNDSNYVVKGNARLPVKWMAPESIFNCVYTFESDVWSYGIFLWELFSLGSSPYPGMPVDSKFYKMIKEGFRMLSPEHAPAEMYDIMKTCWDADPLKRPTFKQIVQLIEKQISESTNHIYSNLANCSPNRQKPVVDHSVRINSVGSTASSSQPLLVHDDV
T1 sequence (P10721 26-976 T144A limits assumed): as the sequence (P10721 26-976 limits assumed) above, with T119A counted along it
T3 sequence (chain, as listed by the source): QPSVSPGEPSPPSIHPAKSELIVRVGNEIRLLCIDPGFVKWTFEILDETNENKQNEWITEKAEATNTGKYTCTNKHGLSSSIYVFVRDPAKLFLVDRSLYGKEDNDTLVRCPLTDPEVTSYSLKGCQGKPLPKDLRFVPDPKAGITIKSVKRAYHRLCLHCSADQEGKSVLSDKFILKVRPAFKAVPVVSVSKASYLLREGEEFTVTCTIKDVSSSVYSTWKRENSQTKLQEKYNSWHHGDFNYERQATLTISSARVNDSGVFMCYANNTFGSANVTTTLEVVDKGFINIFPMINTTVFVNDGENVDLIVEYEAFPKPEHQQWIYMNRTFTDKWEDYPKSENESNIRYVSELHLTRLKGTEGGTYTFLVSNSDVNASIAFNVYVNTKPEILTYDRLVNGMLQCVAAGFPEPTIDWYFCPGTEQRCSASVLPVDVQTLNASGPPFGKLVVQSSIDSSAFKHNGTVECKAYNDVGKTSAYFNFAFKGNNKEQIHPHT
T5 sequence (P10721 26-520 Y259C/N260D limits assumed): as the sequence (P10721 26-520 limits assumed) above, with Y234C, N235D counted along it

B1: ABTx070 (antibody, human IgG1, kappa, V domains shown)
VH: EVQLVESGGGVVRPGGSLRLSCAASGFTFDDYGMSWVRQAPGKGLEWVSDINWNGGSTGYADSVKGRFTISRDNAKNSLYLQMNSLRAEDTALYYCARESWDGSGIYYMDVWGKGTTVTVSS
VL: DIVMTQSPSFLSASVGDRVTITCRASQGISSYLNWYQQKPGKAPKLLIYAASTLQNGVPSRFSGSGSGTDFTLTISSLQPEDFATYYCQQSYSTPITFGQGTRLEIKR
Take B1: the binding result in experiment [1] was “no binding”. The dissociation constant (Kd) in [2] was 6.5 nM; in the experiment with Cyno CD117, 0.486 nM.

B2: ABTx071 (antibody, human IgG1, kappa, V domains shown)
VH: EVQLVESGGGVVRPGGSLRLSCAASGFTFDDYGMSWVRQAPGKGLEWVSGINWNGGSTGYADSVKGRFTISRDNAKNSLHLQMNSLRAEDTALYYCARESWNYEGYYYMDVWGKGTTVTVSS
VL: AIQMTQSPSFLSASVGDRVTITCRASQGISSYLAWYQQKPGKAPKLLIYAASTLQNGVPSRFSGSGSGTEFTLTISSLQPEDFATYYCQQLNSYPYTFGQGTKLEIKR
In the case of B2, the binding result in experiment [1] was “no binding”. The dissociation constant Kd in experiment [2] is 0.523 nM; in the experiment with Cyno CD117 it was 4.28 nM.

B3: ABTx196 (antibody, human IgG1, V domains shown)
VH: EVQLVESGGGLVQPGRSLRLSCAASGFTFDDYAMHWVRQAPGKGLEWVSGISWNSGTIGYADSVKGRFTNSRDNAKNSLYLEMNSLRAEDTALYYCAKDSPPGYCSSASCYGAFDIWGQGTMVTVSS
VL: DVVMTQSPGTLSLSPGERATLSCRASQSVSSSYLAWYQQKPGQAPRLLIYGASSRATGIPDRFSGSGSGTDFTLTISRLEPEDFAVYYCQQSETCLTFGGGTKLEIK
Take B3: in [3], the dissociation constant Kd stood at 8.18 nM. In addition, the “IC50 (M), depletion of human CD34+ HSPCs” value in [4] was 1.3e-05 M. In experiment [5], binding was put at a Kd of 8.18 nM, the koff worked out at 0.000691 s⁻¹ and the on-rate (kon) worked out at 84400 M⁻¹ s⁻¹. In experiment [6], the midpoint of the response, the EC50, lay at 5.21 nM. This molecule also came in with a concentration for a half-maximal effect (EC50) in experiment [7] of 5.21 nM.

B4: ABTx198 (antibody, human IgG1, V domains shown)
VH: EVQLVESGGGLVQPGRSLRLSCAASGFTFDDYAMHWVRQAPGKGLEWVSGISWNSGTIGYADSVKGRFTNSRDNAKNSLYLEMNSLRAEDTALYYCAKDSPPGYCASASCYGAFDIWGQGTMVTVSS
VL: DVVMTQSPGTLSLSPGERATLSCRASQSVSSSYLAWYQQKPGQAPRLLIYGASSRATGIPDRFSGSGSGTDFTLTISRLEPEDFAVYYCQQDSLGLTFGGGTKLEIK
B4: the Kd in experiment [3] and in [5] was 1.2 nM throughout. The “IC50 (M), depletion of human CD34+ HSPCs” value in experiment [4] came out at 3.59e-06 M. This molecule also came in with an off-rate (koff) in [5] of 8.74e-05 s⁻¹. Further, the kon in experiment [5] was determined as 72800 M⁻¹ s⁻¹. The concentration giving a half-maximal response (EC50) in experiment [6] and in [7] was 5.42 nM throughout.

B5: ABTx252 (antibody, human IgG1, kappa, V domains shown)
VH: QVQLVQSGAAVKKPGESLKISCKGSGYRFTSYWIGWVRQMPGKGLEWMGIIYPGDSDTRYSPSFQGQVTISAGKSISTAYLQWSSLKASDTAMYYCARHGRGYDGYEGAFDIWGQGTMVTVSS
VL: AIQLTQSPSSLSASVGDRVTITCRASQGISSALAWYQQKPGKAPKLLIYDASSLESGVPSRFSGSGSGTDFTLTISSLQPEDFATYYCQQFNSHPLTFGGGTKVEIKR
For B5, the binding result in experiment [8] is listed as “no binding”.

B6: ABTx308 (antibody, human IgG1, kappa, L234A L235A, V domains shown)
VH: QVQLVQSGAAVKKPGESLKISCKGSGYRFTSYWIGWVRQMPGKGLEWMGIIYPGDSDTKYSPSFQGQVTISAGKSISTAYLQWSSLKASDTAMYYCARHGRGYDAYDGAFDIWGQGTMVTVSS
VL: AIQLTQSPSSLSASVGDRVTITCRASQGISSALAWYQQKPGKAPKLLIYDASSLESGVPSRFSGSGSGTDFTLTISSLQPEDFATYYCQQFSSYPLTFGGGTKVEIKR
notes: Fc with LALADA
In experiment [9], B6 yielded a Kd of 8.48 nM, a koff of 0.0166 s⁻¹ and an on-rate constant (kon) of 1.95e+06 M⁻¹ s⁻¹. Further, the dissociation constant (Kd) in [10] came to 7.49 nM. In experiment [11], this molecule displayed an EC50 of 0.398 nM.

B7: ABTx253 (antibody, human IgG1, kappa, V domains shown)
VH: QVQLVQSGAAVKKPGESLKISCKGSGYRFTSYWIGWVRQMPGKGLEWMGIIYPGDSDTRYSPSFQGQVTISAGKSISTAYLQWSSLKASDTAMYYCARHGRGYDGYEGAFDIWGQGTMVTVSS
VL: AIQLTQSPSSLSASVGDRVTITCRASQGISSALAWYQQKPGKAPKLLIYDASSLESGVPSRFSGSGSGTDFTLTISSLQPEDFATYYCQQFSSYPLTFGGGTKVEIKR
Take B7: in experiment [12], binding was characterised by a dissociation constant (Kd) of 13.1 nM, the koff worked out at 0.00408 s⁻¹ and the on-rate (kon) is 312000 M⁻¹ s⁻¹. This molecule came in with an EC50 in experiment [13] of 0.0529 nM. In experiment [14], the “IC50 [M], viability of unedited HSCs with 100 ng/mL SCF, 5-7 days” value was found to be 2.21e-06 M.
